Reference: PMC1561584

Biological target: LexA-UNC-119 (C. elegans) (UniProt Q10658)
Assay: two-hybrid; LexA baits and GAD preys in strain L40; data not shown

Chain of UniProt Q10658 (Q10658 whole entry): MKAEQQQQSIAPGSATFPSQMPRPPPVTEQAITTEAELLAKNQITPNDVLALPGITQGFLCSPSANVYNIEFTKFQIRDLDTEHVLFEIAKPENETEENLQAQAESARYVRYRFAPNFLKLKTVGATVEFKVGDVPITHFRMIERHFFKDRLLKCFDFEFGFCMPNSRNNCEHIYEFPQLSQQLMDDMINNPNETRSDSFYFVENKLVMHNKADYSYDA

## ARL-3Δ17 (domain or fragment)
  strength of interaction relative to ARL-3 FL (β-galactosidase activity) (fold of ARL-3 FL): 0.2
